From patent publication US20240043478A1 come the findings set out here.

Test [1] deals with human polyclonal IgG (available from Japan Blood Products Organization) (human). Kind of test: elution ratio at pH 4.0 relative to PN-621.
Test [2] has the same target. Kind of test: dynamic binding, 3 mg/mL IgG, 10% breakthrough, 5 min retention.
For test [3] the target is unchanged. Kind of test: immobilised on agarose gel; IgG eluted at pH 4.0 as % of pH 4.0 + pH 2.8 eluates.

B1: PN-621 Variant, five sequences α8 and one sequence β8 (designed binder)
chain: ADNIFNREVQAAFYHILHLPNLTEEQRNAFIQSLRDDPSVVAEILAEARRLNDAQAPRADNIFNREVQAAFYHILHLPNLTEEQRNAFIQSLRDDPSVVAEILAEARRLNDAQAPRADNIFNREVQAAFYHILHLPNLTEEQRNAFIQSLRDDPSVVAEILAEARRLNDAQAPRADNIFNREVQAAFYHILHLPNLTEEQRNAFIQSLRDDPSVVAEILAEARRLNDAQAPRADNIFNREVQAAFYHILHLPNLTEEQRNAFIQSLRDDPSVVAEILAEARRLNDAQAPRADNIFNREVQAAFYHILHLPNLTEEQRNAFIQSLRDDPSKVKKILKEAKKLNKAQAPK
With B1, in test [1], the Elution Ratio, relative ratio with respect to PN-621 was determined as 1.63. Besides, the Binding Amount of IgG in test [2] came to 66 mg/mL gel. Also, the Elution Ratio (%) under Weakly Acidic Conditions in test [3] was found to be 75.7%.

B2: PN-621 Variant, five sequences α10 and one sequence β10 (designed binder)
chain: ADNIFNEELQHAFYLILHLPNLTEEQRNAFIQSLRDDPSVVAEILAEARRLNDAQAPRADNIFNEELQHAFYLILHLPNLTEEQRNAFIQSLRDDPSVVAEILAEARRLNDAQAPRADNIFNEELQHAFYLILHLPNLTEEQRNAFIQSLRDDPSVVAEILAEARRLNDAQAPRADNIFNEELQHAFYLILHLPNLTEEQRNAFIQSLRDDPSVVAEILAEARRLNDAQAPRADNIFNEELQHAFYLILHLPNLTEEQRNAFIQSLRDDPSVVAEILAEARRLNDAQAPRADNIFNEELQHAFYLILHLPNLTEEQRNAFIQSLRDDPSKVKKILKEAKKLNKAQAPK
B2: the Elution Ratio, relative ratio with respect to PN-621 in test [1] turned out to be 1.79. The Binding Amount of IgG in test [2] came out at 69 mg/mL gel. The Elution Ratio (%) under Weakly Acidic Conditions in test [3] amounted to 82.9%.
